Results on three substances are retold here after patent US5310662.

Data set [1] has as its system hGR G421 421G (Homo sapiens). The note with it: immunoprecipitation DNA binding; transcription <1.
For data set [2], the system named is hGR G423 423G (Homo sapiens). The following applies: immunoprecipitation DNA binding; transcription <1.
Data set [3] has as its system hGR G424 424G (Homo sapiens). The following applies: immunoprecipitation DNA binding; transcription <1.
Data set [4] concerns hGR G426 D426G (Homo sapiens). The following applies: immunoprecipitation DNA binding; transcription 75.
Data set [5] deals with hGR G431 C431G (Homo sapiens). The note with it: immunoprecipitation DNA binding; transcription 80.
The test system of data set [6] is hGR G432 432G (Homo sapiens). The note with it: immunoprecipitation DNA binding; transcription 10.
Data set [7] has as its system hGR G433 433G (Homo sapiens). The note with it: immunoprecipitation DNA binding; transcription 2.
Data set [8] has as its system hGR G437 437G (Homo sapiens). The following applies: immunoprecipitation DNA binding; transcription 20.
The subject of data set [9] is hGR G438 438G (Homo sapiens). The following applies: immunoprecipitation DNA binding; transcription <1.
The test system of data set [10] is hGR G441 441G (Homo sapiens). The following applies: immunoprecipitation DNA binding; transcription <1.
The subject of data set [11] is hGR G442 K442G (Homo sapiens). The following applies: immunoprecipitation DNA binding; transcription <1; specificity minimally affected.
Data set [12] relates to hGR G444 444G (Homo sapiens). The note with it: immunoprecipitation DNA binding; transcription <1.
Data set [13] has as its system hGR G445 445G (Homo sapiens). The note with it: immunoprecipitation DNA binding; transcription <1.
Data set [14] has as its system hGR G446 446G (Homo sapiens). The note with it: immunoprecipitation DNA binding; transcription 40; may be unstable in vitro.
Data set [15] concerns hGR G447 447G (Homo sapiens). The note with it: immunoprecipitation DNA binding; transcription <1.
Data set [16] relates to hGR G450 450G (Homo sapiens). The note with it: immunoprecipitation DNA binding; transcription 60.
For data set [17], the system named is hGR G453 453G (Homo sapiens). The following applies: immunoprecipitation DNA binding; transcription 90.
The test system of data set [18] is hGR G455 455G (Homo sapiens). The following applies: immunoprecipitation DNA binding; transcription 80; may be unstable in vitro.
Data set [19] deals with hGR G457 457G (Homo sapiens). The note with it: immunoprecipitation DNA binding; transcription <1.
Data set [20] concerns hGR G460 460G (Homo sapiens). The following applies: immunoprecipitation DNA binding; transcription 55.
For data set [21], the system named is hGR G462 462G (Homo sapiens). The note with it: immunoprecipitation DNA binding; transcription 80.
Data set [22] deals with hGR G463 463G (Homo sapiens). The following applies: immunoprecipitation DNA binding; transcription <1.
Data set [23] has as its system hGR G465 465G (Homo sapiens). The note with it: immunoprecipitation DNA binding; transcription 1.
For data set [24], the system named is hGR G467 467G (Homo sapiens). The following applies: immunoprecipitation DNA binding; transcription 40; may be unstable in vitro.
In data set [25] the test system is hGR G470 470G (Homo sapiens). The note with it: immunoprecipitation DNA binding; transcription 3.
For data set [26], the system named is hGR G471 471G (Homo sapiens). The following applies: immunoprecipitation DNA binding; transcription 10.
For data set [27], the system named is hGR G473 473G (Homo sapiens). The note with it: immunoprecipitation DNA binding; transcription <1.
Data set [28] relates to hGR G474 474G (Homo sapiens). The following applies: immunoprecipitation DNA binding; transcription 60.
Data set [29] relates to hGR G476 476G (Homo sapiens). The following applies: immunoprecipitation DNA binding; transcription <1.
Data set [30] has as its system hGR G477 477G (Homo sapiens). The note with it: immunoprecipitation DNA binding; transcription <1.
Data set [31] concerns hGR G479 479G (Homo sapiens). The note with it: immunoprecipitation DNA binding; transcription 65.
The test system of data set [32] is hGR G480 480G (Homo sapiens). The note with it: immunoprecipitation DNA binding; transcription 90.
Data set [33] relates to hGR G481 481G (Homo sapiens). The note with it: immunoprecipitation DNA binding; transcription <1.
In data set [34] the test system is hGR G486 486G (Homo sapiens). The following applies: immunoprecipitation DNA binding; transcription 10; may be unstable in vitro.
For data set [35], the system named is hGR delta420-451 del420-451 (positions given are the non-deleted residues at the junction) (Homo sapiens). The note with it: immunoprecipitation DNA binding; transcription <1.
For data set [36], the system named is hGR delta450-487 del450-487 (positions given are the non-deleted residues at the junction) (Homo sapiens). The note with it: immunoprecipitation DNA binding; transcription <1.
The subject of data set [37] is hGR-SB (human glucocorticoid receptor, wild-type-equivalent parent) (Homo sapiens). The note with it: immunoprecipitation DNA binding, reference; transcription 100.
Data set [38] concerns G-gal-G (hGR with DNA-binding domain replaced by GAL4 residues 1-74) (Homo sapiens / Saccharomyces cerevisiae). Nature of the data set: cell_activity.
Data set [39] concerns GAL4 (Saccharomyces cerevisiae). Nature of the data set: cell_activity. The note with it: CAT reporter; lost on deletion of the GAL4 site.

Regarding GRE-containing DNA fragment, the binding signal in data set [1] was < 1 % of hGR-SB; in data set [2], < 1 % of hGR-SB; in [3] it was 1 % of hGR-SB; in data set [4] it was 75 % of hGR-SB; in data set [5] it was 10 % of hGR-SB; in [6] it was 30 % of hGR-SB. In addition, the binding signal in data set [7] is 1 % of hGR-SB; in [8] it was 8 % of hGR-SB; in data set [9], < 1 % of hGR-SB; in data set [10], < 1 % of hGR-SB; in [11] it was 60 % of hGR-SB; in [12] it was 1 % of hGR-SB. The binding signal in data set [13] is < 1 % of hGR-SB; in data set [14], 6 % of hGR-SB; in data set [15] it was 2 % of hGR-SB; in data set [16], 50 % of hGR-SB; in [17], 60 % of hGR-SB; in data set [18] it was 6 % of hGR-SB. Besides, the binding signal in data set [19] was 2 % of hGR-SB; in data set [20] it was 90 % of hGR-SB; in [21] it was 40 % of hGR-SB; in [22], 1 % of hGR-SB; in data set [23], 1 % of hGR-SB; in [24], 6 % of hGR-SB. For the same substance, the binding signal in [25] was 4 % of hGR-SB; in data set [26] it was 6 % of hGR-SB; in data set [27], < 1 % of hGR-SB; in [28], 95 % of hGR-SB; in data set [29] it was < 1 % of hGR-SB; in data set [30], 1 % of hGR-SB. In addition, the binding signal in data set [31] is 40 % of hGR-SB; in [32], 50 % of hGR-SB; in data set [33], 3 % of hGR-SB; in data set [34] it was 1 % of hGR-SB; in data set [35], 1 % of hGR-SB; in [36], 1 % of hGR-SB. The binding signal in data set [37] came out at 100%.
In data set [38] (possible cryptic GAL4 site), “deltaMTV-CAT promoter (GREs deleted, no GAL4 site)” gave an activity (% of deltaMTV-GAL-CAT) of 5.
On to “deltaMTV-GAL-CAT promoter with synthetic GAL4 site 17MX”, for which the activity in data set [38] (CAT reporter, hormone dependent) is 500 fold; in data set [39], 20 fold.
